# No end group written: not given here.
# T1: FhuA (E. coli), P06971
# T1 chain: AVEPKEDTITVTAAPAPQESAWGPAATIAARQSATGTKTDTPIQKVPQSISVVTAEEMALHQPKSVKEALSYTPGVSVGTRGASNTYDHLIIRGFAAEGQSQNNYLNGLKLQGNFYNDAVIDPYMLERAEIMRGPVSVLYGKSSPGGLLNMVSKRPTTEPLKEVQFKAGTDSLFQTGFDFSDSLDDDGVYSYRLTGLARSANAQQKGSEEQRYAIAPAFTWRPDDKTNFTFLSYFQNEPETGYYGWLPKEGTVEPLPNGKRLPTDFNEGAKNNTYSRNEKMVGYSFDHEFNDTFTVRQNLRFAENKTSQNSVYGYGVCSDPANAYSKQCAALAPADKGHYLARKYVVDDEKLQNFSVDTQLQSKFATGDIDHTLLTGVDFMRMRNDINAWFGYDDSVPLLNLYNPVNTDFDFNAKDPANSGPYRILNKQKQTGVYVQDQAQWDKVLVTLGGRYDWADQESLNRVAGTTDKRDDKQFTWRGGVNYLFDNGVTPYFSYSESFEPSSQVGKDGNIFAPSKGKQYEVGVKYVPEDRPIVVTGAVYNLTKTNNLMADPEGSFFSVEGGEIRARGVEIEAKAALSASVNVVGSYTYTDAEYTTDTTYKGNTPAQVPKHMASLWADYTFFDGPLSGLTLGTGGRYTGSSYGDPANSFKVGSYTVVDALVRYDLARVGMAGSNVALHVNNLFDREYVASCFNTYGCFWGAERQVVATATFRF
# T2: SecYEG complex, P0AGA2
# T2 chain 1: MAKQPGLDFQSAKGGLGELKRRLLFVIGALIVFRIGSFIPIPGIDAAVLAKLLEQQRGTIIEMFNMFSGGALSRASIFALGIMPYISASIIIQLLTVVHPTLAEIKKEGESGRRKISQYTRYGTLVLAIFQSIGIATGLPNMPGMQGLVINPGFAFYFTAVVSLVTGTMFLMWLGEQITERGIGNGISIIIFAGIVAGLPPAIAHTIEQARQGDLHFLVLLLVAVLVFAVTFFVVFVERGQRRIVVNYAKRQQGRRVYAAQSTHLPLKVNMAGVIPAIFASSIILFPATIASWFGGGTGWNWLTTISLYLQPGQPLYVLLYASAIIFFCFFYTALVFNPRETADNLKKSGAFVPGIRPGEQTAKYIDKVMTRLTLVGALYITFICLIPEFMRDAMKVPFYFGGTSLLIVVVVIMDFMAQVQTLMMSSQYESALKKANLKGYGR
# T2 chain 2: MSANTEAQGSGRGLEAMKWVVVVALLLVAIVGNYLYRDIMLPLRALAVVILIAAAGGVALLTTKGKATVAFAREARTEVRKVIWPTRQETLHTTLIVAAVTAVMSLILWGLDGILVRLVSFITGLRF
# T2 chain 3: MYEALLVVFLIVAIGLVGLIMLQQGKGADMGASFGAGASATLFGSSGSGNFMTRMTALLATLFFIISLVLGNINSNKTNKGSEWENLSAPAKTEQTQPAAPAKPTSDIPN
# T3: trimeric OmpF porin (E. coli), P02931
# T3 chain: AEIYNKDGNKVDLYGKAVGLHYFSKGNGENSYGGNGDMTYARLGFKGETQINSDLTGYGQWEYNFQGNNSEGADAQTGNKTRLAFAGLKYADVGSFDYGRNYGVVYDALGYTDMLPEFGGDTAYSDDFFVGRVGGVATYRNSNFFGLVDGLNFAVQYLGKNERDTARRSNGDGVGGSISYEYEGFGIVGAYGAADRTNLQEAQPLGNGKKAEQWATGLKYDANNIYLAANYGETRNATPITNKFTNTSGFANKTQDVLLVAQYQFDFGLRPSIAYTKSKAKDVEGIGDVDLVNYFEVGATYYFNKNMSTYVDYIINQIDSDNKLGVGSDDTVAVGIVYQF
# Key:
# membrane proteins = assay: on-gel reconstitution, competitor equimolar NSPr-FAM; 0 no, 100 full competition
# FhuA (E. coli), P06971 [1] = biological target: T1, FhuA (E. coli), P06971; assay: density of the FhuA band of FIG. 19B plotted against log(mol NSPr/mol FhuA); half-maximal reconstitution ratio RR50
# MalFGK2, P02916 [2] = assay: BN-PAGE of MalFGK2-NSPr, time 0 hr of incubation at 30 °C
# MalFGK2, P02916 [3] = assay: BN-PAGE of MalFGK2-NSPr after 3 hr of incubation at 30 °C
# MalFGK2, P02916 [4] = assay: in-gel reconstitution, CN-PAGE titration of NSPr, Boltzmann fit
# SecYEG complex, P0AGA2 = biological target: T2, SecYEG complex, P0AGA2; assay: as above
# FhuA (E. coli), P06971 [5] = biological target: T1, FhuA (E. coli), P06971; assay: as above
# [6] = biological target: T3, trimeric OmpF porin (E. coli), P02931; assay: as above
# MalFGK2, P02916 [7] = assay: BN-PAGE of MalFGK2-NSPr after 2 hr of incubation at 30 °C
# MalFGK2, P02916 [8] = assay: SDS-PAGE densitometry of purified peptidisc against an NSPr standard curve
# [9] = biological target: photosynthetic bacterial reaction center (BRC) from Rhodobacter sphaeroides (Rhodobacter sphaeroides), P0C0Y9; assay: as above
# MalFGK2, P02916 [10] = assay: BN-PAGE of MalFGK2-NSPr after 1 hr of incubation at 30 °C
# FhuA (E. coli), P06971 [11] = biological target: T1, FhuA (E. coli), P06971; assay: western blot with streptavidin-Alexa 680 of peptidisc made with NSPrbio, against a standard curve
# MalFGK2, P02916, sequence (P02916 whole entry, chain 1 of 3): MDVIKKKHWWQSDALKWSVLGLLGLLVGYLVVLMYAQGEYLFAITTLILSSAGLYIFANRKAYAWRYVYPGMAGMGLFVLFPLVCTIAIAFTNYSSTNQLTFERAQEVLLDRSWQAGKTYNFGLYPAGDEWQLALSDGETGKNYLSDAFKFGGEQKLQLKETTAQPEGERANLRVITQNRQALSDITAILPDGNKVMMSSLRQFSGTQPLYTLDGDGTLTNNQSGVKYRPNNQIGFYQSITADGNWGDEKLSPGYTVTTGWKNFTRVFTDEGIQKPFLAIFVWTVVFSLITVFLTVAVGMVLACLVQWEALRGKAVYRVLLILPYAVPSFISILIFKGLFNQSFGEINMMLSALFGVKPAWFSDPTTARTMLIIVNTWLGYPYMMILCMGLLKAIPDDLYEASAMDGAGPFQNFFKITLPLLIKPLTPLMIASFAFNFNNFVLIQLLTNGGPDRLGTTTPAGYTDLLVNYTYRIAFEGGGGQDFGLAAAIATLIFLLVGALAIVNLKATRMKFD
# MalFGK2, P02916, sequence (P68183 whole entry, chain 2 of 3, further chain): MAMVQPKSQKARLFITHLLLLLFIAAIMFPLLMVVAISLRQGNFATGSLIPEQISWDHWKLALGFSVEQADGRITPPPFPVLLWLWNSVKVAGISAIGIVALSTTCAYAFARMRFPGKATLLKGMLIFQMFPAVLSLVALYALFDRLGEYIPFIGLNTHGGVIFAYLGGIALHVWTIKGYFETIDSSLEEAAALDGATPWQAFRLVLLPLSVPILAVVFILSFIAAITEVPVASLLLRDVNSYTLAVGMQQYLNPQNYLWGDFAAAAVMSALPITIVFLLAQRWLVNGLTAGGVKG
# MalFGK2, P02916, sequence (P68187 whole entry, chain 3 of 3, further chain): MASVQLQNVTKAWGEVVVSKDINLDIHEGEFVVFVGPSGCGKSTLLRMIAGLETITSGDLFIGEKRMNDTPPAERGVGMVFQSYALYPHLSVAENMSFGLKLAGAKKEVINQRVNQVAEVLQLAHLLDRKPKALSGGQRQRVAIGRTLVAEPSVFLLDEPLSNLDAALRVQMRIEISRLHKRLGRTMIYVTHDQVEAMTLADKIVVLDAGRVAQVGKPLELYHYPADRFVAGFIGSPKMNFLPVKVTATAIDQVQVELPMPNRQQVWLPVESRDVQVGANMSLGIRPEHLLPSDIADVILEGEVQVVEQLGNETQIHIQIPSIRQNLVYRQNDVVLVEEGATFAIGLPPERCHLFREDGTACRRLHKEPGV
binder,measurement,setting,value
"DWLKAFYDKVAEKLKEAAPDWFKAFYDKVAEKFKEAF (not fully specified (N-terminus, C-terminus)) [Ac-NSP-NH2]",Competition peptide (% NSPr-FAM),membrane proteins,10%
FAEKFKEAVKDYFAKFWDPAAEKLKEAVKDYFAKLWD (modifications not checked) [NSPr],EC50 (read off the curve) (mol NSPr/mol FhuA),"FhuA (E. coli), P06971 [1]",20
same,(%) of the MalFGK2 Peptidisc band,"MalFGK2, P02916 [2]",100%
same,(%) of the MalFGK2 Peptidisc band,"MalFGK2, P02916 [3]",84%
same,RR50 (half-maximal reconstitution molar ratio) (mol NSPr/mol protein),"MalFGK2, P02916 [4]",20
same,RR50 (half-maximal reconstitution molar ratio) (mol NSPr/mol protein),"SecYEG complex, P0AGA2",20
same,RR50 (half-maximal reconstitution molar ratio) (mol NSPr/mol protein),"FhuA (E. coli), P06971 [5]",20
same,RR50 (half-maximal reconstitution molar ratio) (mol NSPr/mol protein),[6],20
same,(%) of the MalFGK2 Peptidisc band,"MalFGK2, P02916 [7]",86%
same,Measured NSPr stoichiometry (NSPr/disc),"MalFGK2, P02916 [8]",10 NSPr/disc
same,Measured NSPr stoichiometry (NSPr/disc),[9],9 NSPr/disc
same,(%) of the MalFGK2 Peptidisc band,"MalFGK2, P02916 [10]",89%
FAEKFKEAVKDYFAKFWDPAAEKLKEAVKDYFAKLWD (not fully specified (N-terminus)) [NSPr-biotin],Measured NSPr stoichiometry (NSPr/disc),"FhuA (E. coli), P06971 [11]",10 NSPr/disc

# Source: patent publication US20210253643A1, “HYDROPHOBIC BIOMOLECULE STABILIZING SCAFFOLD PEPTIDES AND METHODS OF MAKING AND USING SAME” (The University of British Columbia, priority 2018, published 2021)
